From patent US9999687B2, “Fluorescent imaging agents” (VisEn Medical, Inc., priority 2008, dated 2018)
Values belong to the substance of their own block, whether it stands above or below them. [ ]: non-standard residue; d: D form. The star is where a group is joined. Cha = N[C@@H](CC1CCCCC1)C(=O)O; Pent4ynoyl = C#CCCC(=O)*; F5 = not defined here; βAla = NCCC(=O)O

Assays:
[1] = biological target: T1, Recombinant human Cathepsin B (Homo sapiens, UniProt P07858); test: Enzyme activation profile of Q65, Cathepsin B; assay type: biochemical; conditions: probe 0.5 μM, enzyme 0.05 μM, room temperature, monitored 0-24 hours; FIG. 5
T1 construct: purchased R&D Systems
Experimental: The reactions were performed with appropriate buffer at room temperature in a 96-well plate with a final assay volume of 250 μL and probe and enzyme concentrations of 0.5 μM and 0.05 μM, respectively. The buffer for Cathepsin B was 25 mM MES (pH 5.0), 1 mM DTT. Recombinant human Cathepsin B (R&D Systems) was activated in buffer of 25 mM MES (pH 5.0) and 5 mM DTT for 15 minutes at room temperature. Recombinant human Cathepsin L (R&D Systems) was activated in buffer of 50 mM MES (pH 6.0), 5 mM DTT, for 15 minutes on ice. Recombinant mouse Cathepsin Z (R&D Systems) was activated in buffer of 25 mM NaOAc (pH 3.0), 5 mM DTT for 5 minutes at room temperature. The buffer for plasmin (CalBiochem) and trypsin (Sigma) was PBS at pH 7.4.
The plate was incubated at room temperature and the activity monitored at 0, 1, 3, 5, and 24 hours with a Gemini (Molecular Devices) plate reader at excitation wavelength 663 nm, emission 690 nm, and cut off 665 nm. The activity was calculated as the fold of activation by comparing the fluorescence of the enzyme with probe to the fluorescence of probe alone.

[2] = tested on: inflamed atherosclerotic plaques of high cholesterol fed apoE-/- mice; test: Cardiovascular disease imaging, fluorescence reflectance; assay type: in vivo; conditions: 2 nmol, 24 hours post-injection, ex vivo fluorescence reflectance imaging; FIG. 8
Experimental: High cholesterol fed apoE−/− mice were injected with 2 nmol of imaging agent and in vivo imaging was performed with ex vivo fluorescence reflectance imaging.

[3] = tested on: activated humanized rabbit Cathepsin K; test: Enzyme activation profile of Q92 and Q93, Cathepsin K; assay type: biochemical; conditions: probe 0.5 μM, enzyme 0.05 μM, room temperature, 0-24 hours; panel also Cathepsin B, L, MMP-2, MMP-9; FIG. 6
Experimental: The reactions were performed with appropriate buffer at room temperature in a 96-well plate with a final assay volume of 250 μL and probe and enzyme concentrations of 0.5 μM and 0.05 μM respectively. The buffer for activated humanized rabbit Cathepsin K (Merck) was 50 mM MES (pH 5.0), 2.5 mM EDTA, 2.5 mM DTT. The buffer for Cathepsin B was 25 mM MES (pH 5.0), 1 mM DTT. The recombinant human Cathepsin B (R&D Systems) was activated in buffer of 25 mM MES (pH 5.0) and 5 mM DTT for 15 minutes at room temperature. The recombinant human Cathepsin L (R&D Systems) was activated in buffer of 50 mM MES (pH 6.0), 5 mM DTT, for 15 minutes on ice. The buffer for MMP-2 (BIOMOL) and MMP-9 (BIOMOL) was 50 mM Tris (pH 7.5), 10 mM CaCl2, 150 mM NaCl, and 0.05% Brij-35 detergent. The plate was incubated at room temperature and the activity was monitored at 0, 1, 3, 5, and 24 hours with a Gemini (Molecular Devices) plate reader at excitation wavelength 663 nm, emission 690 nm, and cut off 665 nm. The released fluorescent unit was determined by subtracting the fluorescence of the probe alone from the total fluorescence.

[4] = tested on: ovariectomized mice, tibia region; test: Bone imaging, ovariectomy induced osteoporosis; assay type: in vivo, BALB/c female mice; conditions: intravenous, 4 and 24 hours post-injection, fluorescence molecular tomography; FIG. 7
Experimental: BALB/c female mice 7 weeks old (Charles River Laboratory, Wilmington, Mass.) were subjected to ovariectomy or sham surgery to induce osteoporosis. After one to two weeks after surgery, the mice were injected intravenously with imaging agent [F5]-His-Gly-Pro-Asn-Lys(F5)-[PEG20kDa] (SEQ ID NO:427) (Agent Q94). Imaging was conducted at various time points using a Fluorescence Molecular Tomography system (VisEn Medical, Bedford, Mass.).

[5] = biological target: T2, recombinant human Renin (rhRenin) (Homo sapiens, UniProt P00797); test: Enzyme activation profile of R agents, renin; assay type: biochemical; conditions: probe 1 μM, enzyme 100 nM, 37 C, 24 hours; FIG. 11
T2 construct: purchased Proteos
T2 sequence (P00797 67-406): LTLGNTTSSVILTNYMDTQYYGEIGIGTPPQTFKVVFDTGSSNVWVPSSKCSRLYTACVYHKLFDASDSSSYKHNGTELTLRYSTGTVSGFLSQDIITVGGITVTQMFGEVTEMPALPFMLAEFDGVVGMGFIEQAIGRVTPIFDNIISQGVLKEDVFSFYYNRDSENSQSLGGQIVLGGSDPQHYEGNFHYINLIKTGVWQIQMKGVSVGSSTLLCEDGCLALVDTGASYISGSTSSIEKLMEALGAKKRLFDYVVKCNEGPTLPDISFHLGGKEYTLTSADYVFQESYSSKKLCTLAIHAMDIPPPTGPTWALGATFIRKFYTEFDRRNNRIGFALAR
Experimental: (§1) The reactions were performed with appropriate buffer in a 96-well plate with a final assay volume of 250 μL and probe and enzyme concentrations of 1 μM and 100 nM, respectively. The reactions were incubated at 37 C for Renin and room temperature for the other proteases. The buffer for human neutrophil Cathepsin G (BIOMOL) was 100 mM Tris (pH 7.5), 1.6 M NaCl. The buffer for Cathepsin D (BIOMOL) was 100 mM Formic Acid (pH 3.3). The buffer for recombinant human neutrophil elastase (Innovative Research) was 100 mM Tris (pH 7.5). The buffer for plasmin (CalBiochem) and trypsin (Sigma) was 1× phosphate buffered saline (PBS) (pH 7.4). The buffer for recombinant human Renin (rhRenin) (Proteos) and recombinant rat Renin (rrRenin) (Proteos) was 50 mM MOPS (pH 7.4), 100 mM NaCl, with freshly prepared 0.002% tween-20. The plate was incubated at the appropriate temperature and the activity was monitored at 24 hours with a Gemini (Molecular Devices) plate reader at excitation wavelength 663 nm, emission 690 nm, and cut off 665 nm. The released fluorescent unit was determined by subtracting the fluorescence of the probe alone from the total fluorescence.

[6] = biological target: T3, recombinant human neutrophil elastase (Homo sapiens, UniProt P08246); test: Enzyme activation profile of R agents, neutrophil elastase; assay type: biochemical; conditions: probe 1 μM, enzyme 100 nM, room temperature, 24 hours; FIG. 11
T3 construct: purchased Innovative Research
T3 sequence (P08246 30-267): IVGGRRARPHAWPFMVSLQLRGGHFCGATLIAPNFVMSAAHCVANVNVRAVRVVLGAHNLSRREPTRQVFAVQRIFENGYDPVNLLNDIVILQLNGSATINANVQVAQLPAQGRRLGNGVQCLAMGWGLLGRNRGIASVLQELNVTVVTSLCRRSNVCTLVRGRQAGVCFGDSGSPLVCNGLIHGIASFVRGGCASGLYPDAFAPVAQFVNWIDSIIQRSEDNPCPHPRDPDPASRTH
Experimental: as §1

[7] = biological target: T4, human neutrophil Cathepsin G (Homo sapiens, UniProt P08311); test: Enzyme activation profile of R agents, Cathepsin G; assay type: biochemical; conditions: probe 1 μM, enzyme 100 nM, room temperature, 24 hours; FIG. 11
T4 construct: purchased BIOMOL
T4 sequence (P08311 21-244): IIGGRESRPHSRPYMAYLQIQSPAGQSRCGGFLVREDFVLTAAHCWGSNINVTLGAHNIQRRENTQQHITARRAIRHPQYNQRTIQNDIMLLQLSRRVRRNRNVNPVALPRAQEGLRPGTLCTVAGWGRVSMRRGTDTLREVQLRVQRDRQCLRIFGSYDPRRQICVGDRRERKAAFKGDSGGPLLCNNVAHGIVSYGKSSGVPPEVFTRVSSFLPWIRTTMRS
Experimental: as §1

[8] = tested on: trypsin; test: Enzyme activation profile of R agents, trypsin; assay type: biochemical; conditions: probe 1 μM, enzyme 100 nM, room temperature, 24 hours; FIG. 11
Experimental: as §1

[9] = tested on: kidneys of mice on a low sodium diet; test: Renal imaging, low sodium diet versus control diet; assay type: in vivo, C57BL6 mice; conditions: intravenous 0.2-4 nmol/mouse, imaging at 24 hrs, fluorescence molecular tomography; FIG. 12
Experimental: C57BL6 mice (Jackson Laboratories) were fed a sodium deficient diet (0.02% Na) and water was replaced with a solution of amiloride (0.1 mg/5 mL or 5 mg/kg/day) for 2 days. Control C57BL6 mice were fed regular chow diet and water. Imaging agents [F5]-Lys-His-Pro-Phe-His-Leu-Val-Ile-His-Lys(F5)-[OH] (SEQ ID NO:401) (R20) and ([F5]-Lys-His-Pro-Phe-His-Leu-Val-Ile-His-Lys(F5)-[NHmPEG20k] (SEQ ID NO:428) (R21) were injected intravenously at different concentrations (0.2, 0.7, 2 and 4 nmol/mouse) following 2 days on a low salt diet. Imaging was conducted at 24 hrs using a Fluorescence Molecular Tomography system (VisEn Medical, Woburn Mass.).

activation by Cathepsin B (fold of activation) [1]: activated by Cathepsin B
Substance: Pentynoyl-Lys(F5)-Gly-Phe-Leu-Gly-βAla-Lys(F5)-PEG20kDa (Pent4ynoyl-K(F5)GFLG[βAla]K(F5)-PEG20kDa; reading uncertain; also: printed as Pentynoyl-Lys(F5)-Gly-Phe-Leu-Gly-βAla-Lys(F5)-PEG20kDa) [Agent Q65]
fluorescence in atherosclerotic plaques [2]: Fluorescence was detected in plaque-laden vascular sections in the aortic root, the arch and carotid arteries

activation by Cathepsin K (released fluorescent unit) [3]: activated primarily by Cathepsin K
Substance: [F5]-His-Gly-Pro-Arg-Lys(F5)-[PEG20kDa] (F5-HGPRK(F5)-PEG20kDa; reading uncertain; also: printed as [F5]-His-Gly-Pro-Arg-Lys(F5)-[PEG20kDa]) [Agent Q92]

activation by Cathepsin K (released fluorescent unit) [3]: activated primarily by Cathepsin K
Substance: [F5]-His-Gly-Pro-Asn-Lys(F5)-His-Gly-Pro-Asn-βA-[PEG20kDa] (F5-HGPNK(F5)HGPN[βAla]-PEG20kDa; reading uncertain; also: printed as [F5]-His-Gly-Pro-Asn-Lys(F5)-His-Gly-Pro-Asn-βA-[PEG20kDa]) [Agent Q93]

activation by recombinant human renin (released fluorescent unit) [5]: activated | activation by human neutrophil elastase (released fluorescent unit) [6]: activated | activation by human neutrophil cathepsin (released fluorescent unit) [7]: activated | activation by trypsin (released fluorescent unit) [8]: activated
Substance: [F5]-Lys-His-Pro-Phe-His-Leu-Val-Ile-His-Lys(F5)-[NHmPEG20k] (F5-KHPFHLVIHK(F5)-NHmPEG20k; reading uncertain; also: printed as [F5]-Lys-His-Pro-Phe-His-Leu-Val-Ile-His-Lys(F5)-[NHmPEG20k]) [Agent R21]
kidney signal, low sodium diet versus control diet [9]: increased signal relative to the kidneys in the mice on the control diet

More lines, now with the values behind:

Substance: [F5]-His-Gly-Pro-Asn-Lys(F5)-[PEG20kDa] (F5-HGPNK(F5)-PEG20kDa; reading uncertain; also: printed as [F5]-His-Gly-Pro-Asn-Lys(F5)-[PEG20kDa]) [Agent Q94]
probe signal in tibia region, ovariectomized versus sham mice [4]: increased probe signal detected in the tibia region

Substance: [F5]-Lys(Ac)-His-Pro-Phe-His-Leu-Val-Ile-His-Lys(F5)-[OH] (F5-K(Ac)HPFHLVIHK(F5)-OH; reading uncertain; also: printed as [F5]-Lys(Ac)-His-Pro-Phe-His-Leu-Val-Ile-His-Lys(F5)-[OH]) [Agent R23]
activation by recombinant human renin (released fluorescent unit) [5]: activated primarily by recombinant human rennin

Substance: [F5]-Lys-His-Pro-Phe-His-Cha-Val-Ile-His-Lys(F5)-[OH] (F5-KHPFH[Cha]VIHK(F5)-OH; reading uncertain; also: printed as [F5]-Lys-His-Pro-Phe-His-Cha-Val-Ile-His-Lys(F5)-[OH]) [Agent R24]
activation by recombinant human renin (released fluorescent unit) [5]: activated primarily by recombinant human rennin

Substance: [F5]-Lys-His-Pro-Phe-His-Leu-Val-Ile-His-Lys(F5)-[NHmPEG5k] (F5-KHPFHLVIHK(F5)-NHmPEG5k; reading uncertain; also: printed as [F5]-Lys-His-Pro-Phe-His-Leu-Val-Ile-His-Lys(F5)-[NHmPEG5k]) [Agent R27]
activation by recombinant human renin (released fluorescent unit) [5]: activated | activation by human neutrophil elastase (released fluorescent unit) [6]: activated | activation by human neutrophil cathepsin (released fluorescent unit) [7]: activated | activation by trypsin (released fluorescent unit) [8]: activated

Substance: [F5]-Lys-His-Pro-Phe-His-Leu-Val-Ile-His-Lys(F5)-[OH] (F5-KHPFHLVIHK(F5)-OH; reading uncertain; also: printed as [F5]-Lys-His-Pro-Phe-His-Leu-Val-Ile-His-Lys(F5)-[OH]) [Agent R20]
activation by recombinant human renin (released fluorescent unit) [5]: activated primarily by recombinant human rennin | kidney signal, low sodium diet versus control diet [9]: increased signal relative to the kidneys in the mice on the control diet
